Paper PMC10630410, “Functional dissection of PRC1 subunits RYBP and YAF2 during neural differentiation of embryonic stem cells” (Nature Communications, 2023)

Target: T1, GST-RING1B (mouse, UniProt Q9CQJ4 1-336)
T1 construct: RING1B (Ring1b), the coding region amplified from mouse cDNA, in pGEX-4T; also called pGEX-4T-mRing1b; source: E. coli BL21 (DE3), purified (glutathione agarose); not shown: GST, N-terminal, kept
T1 sequence (looked up): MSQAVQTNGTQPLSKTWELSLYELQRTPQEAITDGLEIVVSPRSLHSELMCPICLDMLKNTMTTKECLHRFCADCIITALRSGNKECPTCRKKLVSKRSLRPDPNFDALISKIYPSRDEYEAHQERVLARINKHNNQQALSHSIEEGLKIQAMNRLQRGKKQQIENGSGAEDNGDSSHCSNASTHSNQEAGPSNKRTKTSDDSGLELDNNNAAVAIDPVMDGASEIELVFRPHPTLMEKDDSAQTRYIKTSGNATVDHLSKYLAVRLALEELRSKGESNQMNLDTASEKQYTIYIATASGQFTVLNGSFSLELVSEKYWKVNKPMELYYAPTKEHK
Assay: pull-down; same mixture as a3: purified His-mYAF2-mCherry (0, 100, 300 ng) with 300 ng purified GST-RING1B in the presence of mESC extract, PBS, 4 °C; read out as loss of RYBP from GST-RING1B
Details: both partners purified

binding result: binds
B1: His-mYAF2-mCherry (natural protein, mouse, UniProt Q99LW6 1-179, looked up)
chain: MGDKKSPTRPKRQPKPASDEGYWDCSVCTFRNSAEAFKCMMCDVRKGTSTRKPRPVSQLVAQQVTQQFVPPTQSKKEKKDRVEKDKSEKEAASKKNCHKKTRPRLKNVDRSSAQHLEVTVGDLTVIITDFKEKAKSAPASSAAGDQHSQGSCSSDSTERGVSRSSSPRGEASSLNGESH
notes: YAF2 (Yaf2), the coding region amplified from mouse cDNA, in pET-28a; also called His-YAF2; pET-28a-mYaf2-mCherry; source: E. coli BL21 (DE3), purified (Ni-NTA); not shown: His6, N-terminal, kept
